Results as given in the supplement of paper PMC10065799, “High-throughput profiling of sequence recognition by tyrosine kinases and SH2 domains using bacterial peptide display” (eLife, 2023).
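Note: 11-residue human phosphosite peptides and single-mutation variants displayed on the E. coli surface, counted by deep sequencing, each peptide's frequency after selection divided by its frequency in the unselected input library; frequency after pTyr selection over input frequency; kinase dosed for 20-30% of maximal phosphorylation in three min.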

The sequences below were run against EPHB1 (UniProt P54762) (assay: phosphorylation enrichment, bacterial display (enrichment ratio); higher = better substrate or ligand; peptides without Tyr show the background).
Sequence of EPHB1 (P54762 whole entry, looked up): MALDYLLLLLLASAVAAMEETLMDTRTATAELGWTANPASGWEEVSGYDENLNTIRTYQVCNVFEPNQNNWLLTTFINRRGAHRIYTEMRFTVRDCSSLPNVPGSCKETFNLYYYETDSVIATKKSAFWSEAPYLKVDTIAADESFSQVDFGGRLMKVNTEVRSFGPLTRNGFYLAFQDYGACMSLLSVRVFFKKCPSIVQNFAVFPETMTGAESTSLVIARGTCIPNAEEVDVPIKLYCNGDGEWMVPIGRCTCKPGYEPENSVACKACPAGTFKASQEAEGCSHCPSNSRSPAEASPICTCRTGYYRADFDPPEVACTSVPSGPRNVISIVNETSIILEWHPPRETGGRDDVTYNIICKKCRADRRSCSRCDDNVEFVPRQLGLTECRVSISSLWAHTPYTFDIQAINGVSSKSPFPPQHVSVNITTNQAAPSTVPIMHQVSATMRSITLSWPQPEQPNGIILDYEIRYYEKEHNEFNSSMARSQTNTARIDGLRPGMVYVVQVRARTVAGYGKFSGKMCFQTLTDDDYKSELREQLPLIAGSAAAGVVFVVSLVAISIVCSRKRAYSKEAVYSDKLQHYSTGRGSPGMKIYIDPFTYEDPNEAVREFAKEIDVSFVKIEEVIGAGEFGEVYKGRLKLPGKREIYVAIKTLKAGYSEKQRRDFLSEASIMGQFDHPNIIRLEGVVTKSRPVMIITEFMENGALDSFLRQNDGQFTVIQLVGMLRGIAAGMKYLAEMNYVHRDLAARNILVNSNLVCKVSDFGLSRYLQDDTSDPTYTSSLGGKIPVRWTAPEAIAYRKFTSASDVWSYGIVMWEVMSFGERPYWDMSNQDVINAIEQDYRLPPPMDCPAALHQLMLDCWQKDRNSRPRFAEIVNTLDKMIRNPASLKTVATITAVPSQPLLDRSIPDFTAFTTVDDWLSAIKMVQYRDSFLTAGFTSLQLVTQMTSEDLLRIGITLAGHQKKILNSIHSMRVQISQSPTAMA
DDPRTYQKYGY [OAS1_Y362_R361T] showed a phosphorylation enrichment of 0.458. Work on VPVNGYQPVTA [ROR2_Y824_P828T] yielded a phosphorylation enrichment of 0.392. With RSSNTYTLMDV [ALCAM_Y298_T301M] the phosphorylation enrichment was 0.633. Work on EDASEYYENYI [PARP4_Y214_F215Y] yielded a phosphorylation enrichment of 0.782. With HSKGIYYVQLE [MGAT4B_Y262_Q257H] the phosphorylation enrichment was 1.68. KYVVVYFRETD [IL17RB_Y447_I451T] was tested, and the phosphorylation enrichment was 0.757. For RELGKYGLQAY [ALDH2_Y497_E496K], the phosphorylation enrichment was 0.403. INNIDYFKNTT [FGFR2_Y656_K659N_YF] gave a phosphorylation enrichment of 0.374. Work on DMQTLYVNTAA [SMCHD1_Y403] yielded a phosphorylation enrichment of 0.428. In the case of SVVAPYEPPEV [TP53_Y220_V218A], the phosphorylation enrichment is reported as 0.629. NKPTVCGVSPN [ABL1_Y226_Y226C] was tested, and the phosphorylation enrichment was 0.476. With RRAKGYPINLF [ITGB2_Y125_D128N_YF] the phosphorylation enrichment was 0.576. For CPTIHYNYMCN [TP53_Y234_T230P], the phosphorylation enrichment was 0.603. Work on ISDDKYGRIRL [ARCN1_Y310] yielded a phosphorylation enrichment of 0.357. Sequence MECLPYGSLRD [JAK2_Y934_Y931C] has a phosphorylation enrichment of 0.598. With MPIPMYDASQA [CARMIL1_Y637] the phosphorylation enrichment was 0.867. CTLSVYRQLHN [LUZP1_Y1036] showed a phosphorylation enrichment of 0.622. Work on YSKDIYKRVTG [PANK2_Y405_N404I] yielded a phosphorylation enrichment of 0.38. ILGRTHFVNHE [NEDD4_Y627_Y627H_YF] showed a phosphorylation enrichment of 0.471. In the case of VVIMLYGVDSR [PKD1_Y3143_G3139V], the phosphorylation enrichment is reported as 0.879. HHTDEYEYDEL [TGM1_Y134] was tested, and the phosphorylation enrichment was 1.02. RKPDIYGRLAS [MCM4_Y459_E460G] gave a phosphorylation enrichment of 0.513. Work on RPGSGYTNIMQ [PKLR_Y564_R569Q] yielded a phosphorylation enrichment of 0.61. In the case of YIIFIYAMKKK [SLCO1B1_Y645_L643F], the phosphorylation enrichment is reported as 0.273. For LFDPDFMKVIL [CYP4A22_Y104_Y104F_YF], the phosphorylation enrichment was 1.63. In the case of SHLSSYTTHPQ [NIPBL_Y195_P192L], the phosphorylation enrichment is reported as 0.389. QEITTYRRLLE [KRT14_Y415_A413T] showed a phosphorylation enrichment of 0.619. HEKKVYSFCGT [RPS6KA3_Y226_A225V] showed a phosphorylation enrichment of 0.736. KAFDMYSGDVM [FAM3D_Y122] was tested, and the phosphorylation enrichment was 1.18. In the case of VATRWYQSPEL [CDKL5_Y177_R178Q], the phosphorylation enrichment is reported as 0.508. DNEAIYDICRC [TUBA4A_Y210_R215C] gave a phosphorylation enrichment of 1.82. YQGGTYSKAST [FGG_Y380] gave a phosphorylation enrichment of 0.33. In the case of DPEATYTTSGS [EPHA2_Y772_G777S], the phosphorylation enrichment is reported as 0.476.

Each sequence was assayed on Fer (mouse) in the same assay as above.
Sequence DDPRTYQKYGY [OAS1_Y362_R361T] has a phosphorylation enrichment of 0.41. With VPVNGYQPVTA [ROR2_Y824_P828T] the phosphorylation enrichment was 0.336. In the case of RSSNTYTLMDV [ALCAM_Y298_T301M], the phosphorylation enrichment is reported as 1.42. With EDASEYYENYI [PARP4_Y214_F215Y] the phosphorylation enrichment was 0.995. Sequence HSKGIYYVQLE [MGAT4B_Y262_Q257H] has a phosphorylation enrichment of 0.615. Work on KYVVVYFRETD [IL17RB_Y447_I451T] yielded a phosphorylation enrichment of 0.564. Work on RELGKYGLQAY [ALDH2_Y497_E496K] yielded a phosphorylation enrichment of 0.475. INNIDYFKNTT [FGFR2_Y656_K659N_YF] gave a phosphorylation enrichment of 0.317. DMQTLYVNTAA [SMCHD1_Y403] was tested, and the phosphorylation enrichment was 0.482. SVVAPYEPPEV [TP53_Y220_V218A] showed a phosphorylation enrichment of 0.578. Work on NKPTVCGVSPN [ABL1_Y226_Y226C] yielded a phosphorylation enrichment of 0.441. Sequence RRAKGYPINLF [ITGB2_Y125_D128N_YF] has a phosphorylation enrichment of 0.454. Sequence CPTIHYNYMCN [TP53_Y234_T230P] has a phosphorylation enrichment of 0.621. Sequence ISDDKYGRIRL [ARCN1_Y310] has a phosphorylation enrichment of 0.312. In the case of MECLPYGSLRD [JAK2_Y934_Y931C], the phosphorylation enrichment is reported as 0.669. Sequence MPIPMYDASQA [CARMIL1_Y637] has a phosphorylation enrichment of 0.565. CTLSVYRQLHN [LUZP1_Y1036] was tested, and the phosphorylation enrichment was 0.536. YSKDIYKRVTG [PANK2_Y405_N404I] gave a phosphorylation enrichment of 0.551. ILGRTHFVNHE [NEDD4_Y627_Y627H_YF] was tested, and the phosphorylation enrichment was 0.457. Work on VVIMLYGVDSR [PKD1_Y3143_G3139V] yielded a phosphorylation enrichment of 0.682. With HHTDEYEYDEL [TGM1_Y134] the phosphorylation enrichment was 0.958. Work on RKPDIYGRLAS [MCM4_Y459_E460G] yielded a phosphorylation enrichment of 0.747. For RPGSGYTNIMQ [PKLR_Y564_R569Q], the phosphorylation enrichment was 0.466. In the case of YIIFIYAMKKK [SLCO1B1_Y645_L643F], the phosphorylation enrichment is reported as 0.433. In the case of LFDPDFMKVIL [CYP4A22_Y104_Y104F_YF], the phosphorylation enrichment is reported as 0.999. SHLSSYTTHPQ [NIPBL_Y195_P192L] showed a phosphorylation enrichment of 0.392. QEITTYRRLLE [KRT14_Y415_A413T] gave a phosphorylation enrichment of 0.505. HEKKVYSFCGT [RPS6KA3_Y226_A225V] showed a phosphorylation enrichment of 0.431. Sequence KAFDMYSGDVM [FAM3D_Y122] has a phosphorylation enrichment of 0.423. VATRWYQSPEL [CDKL5_Y177_R178Q] gave a phosphorylation enrichment of 0.531. For DNEAIYDICRC [TUBA4A_Y210_R215C], the phosphorylation enrichment was 7.98. YQGGTYSKAST [FGG_Y380] was tested, and the phosphorylation enrichment was 0.387. DPEATYTTSGS [EPHA2_Y772_G777S] gave a phosphorylation enrichment of 0.48.

These sequences were tested against Jak2 (UniProt O60674) in the same assay as above.
Sequence of Jak2 (O60674 whole entry, looked up): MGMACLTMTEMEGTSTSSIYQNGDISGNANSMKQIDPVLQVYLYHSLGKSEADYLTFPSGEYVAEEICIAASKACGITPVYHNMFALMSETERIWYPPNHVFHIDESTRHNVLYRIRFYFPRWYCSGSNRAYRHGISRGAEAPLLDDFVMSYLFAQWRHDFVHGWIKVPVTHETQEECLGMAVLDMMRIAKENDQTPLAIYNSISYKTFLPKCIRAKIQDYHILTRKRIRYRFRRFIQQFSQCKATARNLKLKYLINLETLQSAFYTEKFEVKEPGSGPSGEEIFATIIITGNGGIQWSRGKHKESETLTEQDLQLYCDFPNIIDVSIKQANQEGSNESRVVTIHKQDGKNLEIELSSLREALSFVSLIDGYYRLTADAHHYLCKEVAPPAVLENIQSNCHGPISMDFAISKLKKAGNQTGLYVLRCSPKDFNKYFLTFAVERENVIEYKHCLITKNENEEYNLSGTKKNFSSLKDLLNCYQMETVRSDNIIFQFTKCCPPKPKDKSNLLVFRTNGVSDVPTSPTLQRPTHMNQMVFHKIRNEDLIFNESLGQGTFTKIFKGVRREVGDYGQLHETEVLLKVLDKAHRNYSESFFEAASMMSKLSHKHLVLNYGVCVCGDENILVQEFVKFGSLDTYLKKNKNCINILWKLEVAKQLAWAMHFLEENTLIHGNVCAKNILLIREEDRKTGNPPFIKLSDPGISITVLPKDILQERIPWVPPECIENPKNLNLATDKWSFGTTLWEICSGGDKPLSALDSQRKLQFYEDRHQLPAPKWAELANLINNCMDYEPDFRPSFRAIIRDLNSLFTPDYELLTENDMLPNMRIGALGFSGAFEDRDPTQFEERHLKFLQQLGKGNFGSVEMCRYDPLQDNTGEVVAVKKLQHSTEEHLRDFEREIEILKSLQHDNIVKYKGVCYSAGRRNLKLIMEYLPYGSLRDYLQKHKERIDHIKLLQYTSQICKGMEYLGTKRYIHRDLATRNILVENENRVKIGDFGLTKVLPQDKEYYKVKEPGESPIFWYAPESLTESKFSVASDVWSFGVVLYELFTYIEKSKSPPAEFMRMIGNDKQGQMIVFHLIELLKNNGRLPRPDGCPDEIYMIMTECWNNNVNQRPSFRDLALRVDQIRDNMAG
DDPRTYQKYGY [OAS1_Y362_R361T] gave a phosphorylation enrichment of 0.635. VPVNGYQPVTA [ROR2_Y824_P828T] showed a phosphorylation enrichment of 0.494. Sequence RSSNTYTLMDV [ALCAM_Y298_T301M] has a phosphorylation enrichment of 0.309. EDASEYYENYI [PARP4_Y214_F215Y] was tested, and the phosphorylation enrichment was 1.02. Work on HSKGIYYVQLE [MGAT4B_Y262_Q257H] yielded a phosphorylation enrichment of 4.4. Sequence KYVVVYFRETD [IL17RB_Y447_I451T] has a phosphorylation enrichment of 1.27. With RELGKYGLQAY [ALDH2_Y497_E496K] the phosphorylation enrichment was 0.543. With INNIDYFKNTT [FGFR2_Y656_K659N_YF] the phosphorylation enrichment was 0.463. Work on DMQTLYVNTAA [SMCHD1_Y403] yielded a phosphorylation enrichment of 0.518. In the case of SVVAPYEPPEV [TP53_Y220_V218A], the phosphorylation enrichment is reported as 1.1. NKPTVCGVSPN [ABL1_Y226_Y226C] was tested, and the phosphorylation enrichment was 0.759. For RRAKGYPINLF [ITGB2_Y125_D128N_YF], the phosphorylation enrichment was 0.603. With CPTIHYNYMCN [TP53_Y234_T230P] the phosphorylation enrichment was 0.776. In the case of ISDDKYGRIRL [ARCN1_Y310], the phosphorylation enrichment is reported as 0.419. Work on MECLPYGSLRD [JAK2_Y934_Y931C] yielded a phosphorylation enrichment of 1.07. MPIPMYDASQA [CARMIL1_Y637] gave a phosphorylation enrichment of 0.717. CTLSVYRQLHN [LUZP1_Y1036] showed a phosphorylation enrichment of 1.07. Work on YSKDIYKRVTG [PANK2_Y405_N404I] yielded a phosphorylation enrichment of 0.447. In the case of ILGRTHFVNHE [NEDD4_Y627_Y627H_YF], the phosphorylation enrichment is reported as 0.485. VVIMLYGVDSR [PKD1_Y3143_G3139V] was tested, and the phosphorylation enrichment was 1.35. For HHTDEYEYDEL [TGM1_Y134], the phosphorylation enrichment was 1.19. RKPDIYGRLAS [MCM4_Y459_E460G] was tested, and the phosphorylation enrichment was 0.535. RPGSGYTNIMQ [PKLR_Y564_R569Q] was tested, and the phosphorylation enrichment was 0.463. YIIFIYAMKKK [SLCO1B1_Y645_L643F] was tested, and the phosphorylation enrichment was 0.545. With LFDPDFMKVIL [CYP4A22_Y104_Y104F_YF] the phosphorylation enrichment was 2.74. In the case of SHLSSYTTHPQ [NIPBL_Y195_P192L], the phosphorylation enrichment is reported as 0.663. For QEITTYRRLLE [KRT14_Y415_A413T], the phosphorylation enrichment was 1.07. In the case of HEKKVYSFCGT [RPS6KA3_Y226_A225V], the phosphorylation enrichment is reported as 0.692. In the case of KAFDMYSGDVM [FAM3D_Y122], the phosphorylation enrichment is reported as 0.653. In the case of VATRWYQSPEL [CDKL5_Y177_R178Q], the phosphorylation enrichment is reported as 0.566. DNEAIYDICRC [TUBA4A_Y210_R215C] was tested, and the phosphorylation enrichment was 0.923. With YQGGTYSKAST [FGG_Y380] the phosphorylation enrichment was 0.373. In the case of DPEATYTTSGS [EPHA2_Y772_G777S], the phosphorylation enrichment is reported as 0.694.

The sequences below were run against FGFR3 (UniProt P22607) in the same assay as above.
Sequence of FGFR3 (P22607 whole entry, looked up): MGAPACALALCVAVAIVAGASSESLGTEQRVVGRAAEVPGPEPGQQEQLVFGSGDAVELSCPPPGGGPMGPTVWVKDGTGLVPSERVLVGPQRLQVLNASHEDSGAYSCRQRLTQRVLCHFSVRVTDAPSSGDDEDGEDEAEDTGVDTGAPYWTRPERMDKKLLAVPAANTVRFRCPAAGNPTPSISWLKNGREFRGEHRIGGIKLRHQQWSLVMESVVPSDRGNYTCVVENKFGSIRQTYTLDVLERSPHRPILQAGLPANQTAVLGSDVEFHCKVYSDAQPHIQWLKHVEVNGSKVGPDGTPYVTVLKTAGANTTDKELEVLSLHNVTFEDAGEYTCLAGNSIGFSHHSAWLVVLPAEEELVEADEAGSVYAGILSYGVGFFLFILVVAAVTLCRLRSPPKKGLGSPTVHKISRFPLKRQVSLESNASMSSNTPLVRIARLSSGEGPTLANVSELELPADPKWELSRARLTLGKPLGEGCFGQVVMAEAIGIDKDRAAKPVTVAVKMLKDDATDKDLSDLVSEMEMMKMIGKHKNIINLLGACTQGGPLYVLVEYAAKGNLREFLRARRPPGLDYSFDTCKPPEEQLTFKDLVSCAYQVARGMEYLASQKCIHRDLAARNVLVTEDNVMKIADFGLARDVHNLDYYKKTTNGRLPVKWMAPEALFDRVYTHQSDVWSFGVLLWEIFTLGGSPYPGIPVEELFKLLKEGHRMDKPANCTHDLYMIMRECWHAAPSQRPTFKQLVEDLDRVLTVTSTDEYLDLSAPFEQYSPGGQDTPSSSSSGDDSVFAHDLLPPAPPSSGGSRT
Sequence DDPRTYQKYGY [OAS1_Y362_R361T] has a phosphorylation enrichment of 0.555. Work on VPVNGYQPVTA [ROR2_Y824_P828T] yielded a phosphorylation enrichment of 0.535. Sequence RSSNTYTLMDV [ALCAM_Y298_T301M] has a phosphorylation enrichment of 1.17. Work on EDASEYYENYI [PARP4_Y214_F215Y] yielded a phosphorylation enrichment of 1.6. HSKGIYYVQLE [MGAT4B_Y262_Q257H] was tested, and the phosphorylation enrichment was 3.3. In the case of KYVVVYFRETD [IL17RB_Y447_I451T], the phosphorylation enrichment is reported as 0.708. In the case of RELGKYGLQAY [ALDH2_Y497_E496K], the phosphorylation enrichment is reported as 0.47. For INNIDYFKNTT [FGFR2_Y656_K659N_YF], the phosphorylation enrichment was 0.474. Work on DMQTLYVNTAA [SMCHD1_Y403] yielded a phosphorylation enrichment of 0.478. Sequence SVVAPYEPPEV [TP53_Y220_V218A] has a phosphorylation enrichment of 0.753. For NKPTVCGVSPN [ABL1_Y226_Y226C], the phosphorylation enrichment was 0.589. Sequence RRAKGYPINLF [ITGB2_Y125_D128N_YF] has a phosphorylation enrichment of 0.465. In the case of CPTIHYNYMCN [TP53_Y234_T230P], the phosphorylation enrichment is reported as 0.586. ISDDKYGRIRL [ARCN1_Y310] gave a phosphorylation enrichment of 0.357. Sequence MECLPYGSLRD [JAK2_Y934_Y931C] has a phosphorylation enrichment of 0.794. With MPIPMYDASQA [CARMIL1_Y637] the phosphorylation enrichment was 0.629. For CTLSVYRQLHN [LUZP1_Y1036], the phosphorylation enrichment was 0.823. With YSKDIYKRVTG [PANK2_Y405_N404I] the phosphorylation enrichment was 0.342. ILGRTHFVNHE [NEDD4_Y627_Y627H_YF] was tested, and the phosphorylation enrichment was 0.559. Work on VVIMLYGVDSR [PKD1_Y3143_G3139V] yielded a phosphorylation enrichment of 0.924. Sequence HHTDEYEYDEL [TGM1_Y134] has a phosphorylation enrichment of 1.05. With RKPDIYGRLAS [MCM4_Y459_E460G] the phosphorylation enrichment was 1.05. With RPGSGYTNIMQ [PKLR_Y564_R569Q] the phosphorylation enrichment was 0.517. YIIFIYAMKKK [SLCO1B1_Y645_L643F] was tested, and the phosphorylation enrichment was 0.507. For LFDPDFMKVIL [CYP4A22_Y104_Y104F_YF], the phosphorylation enrichment was 1.86. SHLSSYTTHPQ [NIPBL_Y195_P192L] gave a phosphorylation enrichment of 0.591. QEITTYRRLLE [KRT14_Y415_A413T] was tested, and the phosphorylation enrichment was 0.78. In the case of HEKKVYSFCGT [RPS6KA3_Y226_A225V], the phosphorylation enrichment is reported as 0.842. In the case of KAFDMYSGDVM [FAM3D_Y122], the phosphorylation enrichment is reported as 0.569. Sequence VATRWYQSPEL [CDKL5_Y177_R178Q] has a phosphorylation enrichment of 0.754. Work on DNEAIYDICRC [TUBA4A_Y210_R215C] yielded a phosphorylation enrichment of 0.761. In the case of YQGGTYSKAST [FGG_Y380], the phosphorylation enrichment is reported as 0.43. Sequence DPEATYTTSGS [EPHA2_Y772_G777S] has a phosphorylation enrichment of 0.596.
